From the DeepSol protein solubility set

Experiment: soluble on expression in E. coli; label from the status in PepcDB or PDB records

Row | Sequence | soluble on expression in E. coli
1 | MPKKFASENPKVTAARDRKATAKKDEADKKAKATEDAKWVDNDKLNNRKMQRKEDDEKKREEALRRKEENRKLAEEEMSSLGNKKPAGAATQKVTRAHIHIRKEDEERINRELEEKRKQEAQKIEVAGDLLVENLNKLEVEEGEARNVDDALKVLGEEKALDDDKHPEKRMRAAYLAFEEARLPELKLNHPTFRLSQLKQILKKEWQKSPENPLNARLLALNS | soluble
2 | MWPPCFWWRTSPACAWGCGWPSRGRGTGFWRRPPRRRPWPLLREAELVVLDWMLPDEPGVRLLDRMRQGPYESLPVLMLTARAGVRDRVEGLSRGADDYLVKPFAVEELLARLEALLRRAGKRKVLRRGPLLLDLERMEARLEGNPLPLTRREFALLAYLAERPGRVCTREELLEAVWGPDYLGTPRTVDQHVLQLREKLGEDPKAPRFLETVRGVGYRFREEA | soluble
3 | GSESKCPEELANYCDMLLRKTPLSKKLTSEEIEAKLKEVLKKLKYVQNKDVFMRYHKAHLTRRLILDISADSEIEENMVEWLREVGMPADYVNKLARMFQDIKVSEDLNQAFKEMHKNNKLALPADSVNIKILNAGAWSRSSEKVFVSLPTELEDLIPEVEEFYKKNHSGRKLHWHHLMSNGIITFKNEVGQYDLEVTTFQLAVLFAWNQRPREKISFENLKLATELPDAELRRTLWSLVAFPKLKRQVLLYEPQVNSPKDFTEGTLFSVNQEFSLIKNAKVQKRGKINLIGRLQLTTERMREEENEGIVQLRILRTQEAIIQIMKMRKKISNAQLQTELVEILKNMFLPQKKMIKEQIEWLIEHKYIRRDESDINTFIYMA | soluble
4 | MDIGINSDPPPRDWQLEKVVELSRAGIRPPTAGNREAIEAATGRPWTEWTTHDGELTGHGYAAVVNKGREEGQHYRQLGLLQAGCPTAESIYVRASPLQRTRATAQALVDGAFPGCGVAIHYANGDADPLFQTDKFAATQTDPARQLAAVKEKAGDLAQRRQALAPTIQLLKQAVCQADKPCPIFDTPWRVEQSKSGKTTISGLSVMANMVETLRLGWSENLPLSQLAWGKIAQASQITALLPLLTENYDLSNDVLYTAQKRGSVLLNAMLDGVKPEASPNVRWLLLVAHDTNIAMVRTLMNFSWQLPGYSRGNIPPGSSLVLERWRDAKSGERYLRVYFQAQGLDDLRRLQTPDAQHPMLRQEWRQPGCRQTDVGTLCPFQAAITALGQRIDRPSAPAVAMVLPKLAAALEHHHHHH | soluble
5 | MNELIGFVNGNSVRQKVLSLLASKGEMEGKRISKTLRVVYPTIAKTLEELEEKNLISKKEEIYFLTETGTKIEKMVQQI | not soluble
6 | SNAMKPENKIPVLTRLSDEMTAVVNFQQPGLPPWPADGDIETQRQYYLLERRFWNADAPSMTTRTCAVPTPYGDVTTRLYSPQPTSQATLYYLHGGGFILGNLDTHDRIMRLLARYTGCTVIGIDYSLSPQARYPQAIEETVAVCSYFSQHADEYSLNVEKIGFAGDSAGAMLALASALWLRDKHIRCGNVIAILLWYGLYGLQDSVSRRLFGGAWDGLTREDLDMYEKAYLRNDEDRESPWYCLFNNDLTRDVPPCFIASAEFDPLIDDSRLLHQTLQAHQQPCEYKMYPGTLHAFLHYSRMMTIADDALQDGARFFMARMKTPR | soluble
7 | RTDTIMVVNVGNHAKKIKMVSFMRDTLINIPGYSYNDNSYDLKLNSAFNLGEQEDHHGAEYVRRALKHNFDIDIKYYVMVDFETFAEAIDTLFPNGVKIDAKFATVGGVAVDSVEVPDDLRMKNGVVPNQTIEVGEQRMDGRTLLNYARFRKDDEGDFGRTVRQQQVMSAVMSQIKD | not soluble
8 | ISEFGSCPPGQFRCSEPPGAHGECYPQDWLCDGHPDCDDGRDEWGCG | soluble
9 | MGSDKIHHHHHHMTPRELTCDETLAEMARVLTVEAAALTQMASEVGDPQLKAVEILEAMEGRVIVSGVGKSGHIGNKIAATLASTGTPAQFVHATEASHGDLGMVTPRDVCLVISNSGETSELADIVTYSRRFAIPLIAITRKADSTLATQADVVLLLPDAPEACGIGMAPTTSTTATLAMGDALAVALMKRRGFEREDFKVFHPGGKLGAQLMLVDGLMHTGEALPLVAPETPMTEALLIMTAKGFGLAGLVEGGRLTGIITDGDLRRNMDGLMARSAGEVATRGPKVIRRGSLASEALHDMNSRKISALFVLDNEDRVAGLLHIHDCLRAGLA | not soluble
10 | MGSDKIHHHHHHMNNKKIFLFEFTVGTGLVPDELLAEGKLMFDILLNQFLDENYTVKTVLCEKIAKKYPKYNEINNLEIIVSDNYINSFKEGLDDSDFALAIAPEEDLILYNLTELIEESGCLNLGCEKSGVKIAGDKFLTYEAIKNAVNTPKTFPVKKYVVKNRLGCDSTHDTFDENYIVQEFIEGEPYSVIFIAKNKKFYPVCMNKQYIEKRYCGGEINIEHTLKEKAIIECKKTLEKIEGINGYVGVDLMINGEEISILEVNPRITTSICGIKSKPSIGKLLIDNALEKDIKFEVESCLKFKRNDFGFEFL | not soluble
11 | MVEEMNNEVTEMKSFSVGDVVSGKVTKVEDKQAFVDVGFKVDGIIPISELSSLHVEKVSDVLSEGDELELKVLKVEDDELILSKRAVQAEKAWETLQAALDSGEVIEAEVADVVKGGLVVDLGVRGFIPASLVERHYVEDFSDYKGRTLRLKVVELDKEANKLILSQRAVLDEEVEAKKKEVLASLQPGDVVEGTVQRLTDFGAFVDVGGVDGLVHISQLAHHRVETPAEVVKEGDAVKVKVLSVDPDSERVSLSIKETLPGPWEQVEGTIQPGDVIEGTVKRLVSFGAFVEVAPGVEGLVHISQIANRHIGTPGEVLSEGERVQAKVLDVNISEKRISLSIRELLDDAGSNQSDREVYESTNEESSGFSLGDMIGDELKKYKLEHHHHHH | soluble
12 | MRPSAPAISRQTLLDEPRPGSLTIGYEPSEEAQPTENPPRFSWLPDIDDGARYVLRISTDPGFTDKKTLVFEDLAWNFFTPDEALPDGHYHWCYALWDQKSATAHSNWSTVRSFEISEALPKTPLPGRSARHAAAQTSHPRLWLNSEQLSAFADAVAKDPNHCGWAEFYEKSVEPWLERPVMPEPQPYPNNTRVATLWRQMYIDCQEVIYAIRHLAIAGRVLGRDDLLDASRKWLLAVAAWDTKGATSRAYNDEAGFRVVVALAWGYDWLYDHLSEDERRTVRSVLLERTREVADHVIAHARIHVFPYDSHAVRSLSAVLTPACIALQGESDEAGEWLDYTVEFLATLYSPWAGTDGGWAEGPHYWMTGMAYLIEAANLIRSYIGYDLYQRPFFQNTGRFPLYTKAPGTRRANFGDDSTLGDLPGLKLGYNVRQFAGVTGNGHYQWYFDHIKADATGTEMAFYNYGWWDLNFDDLVYRHDYPQVEAVSPADLPALAVFDDIGWATIQKDMEDPDRHLQFVFKSSPYGSLSHSHGDQNAFVLYAHGEDLAIQSGYYVAFNSQMHLNWRRQTRSKNAVLIGGKGQYAEKDKALARRAAGRIVSVEEQPGHVRIVGDATAAYQVANPLVQKVLRETHFVNDSYFVIVDEVECSEPQELQWLCHTLGAPQTGRSSFRYNGRKAGFYGQFVYSSGGTPQISAVEGFPDIDPKEFEGLDIHHHVCATVPAATRHRLVTLLVPYSLKEPKRIFSFIDDQGFSTDIYFSDVDDERFKLSLPKQF | soluble
13 | MTDEIISYQKAKLAKNLAISTASKWLFVHSSTGGSATNLSIAQYATLINGIQSAIKCQVILTAGKGERERAVELAEKLTDQNVVIYDKNDGLADFTRSLACADLFIAGSTGPLHIAGGLNIPTVGFYPSRLSATPRRWRPINQVDKHLAFCPPSGKQCEMDLTLISIEQALTSVIPFIKKMWQLSLEHHHHHH | soluble
14 | MKTEHKQVVVVGAGPSGSTVSALLKSRGIDVVVIEKATFPRFSIGESLLPACMEVVELAGMTEAVKQHGFQFKDGAAFRRNGVYTHFDFTDKFTAGPGTTFQVQRASFDKVLADSAAEQGVDIRYQHELVSLAFEGKKSRLEVVGPDKQAYQIEADFVLDASGFGRVLPRLLDLEEPSCLPPRKAIFTHIEDHISPQEPEYDRNKILISVHPENHDVWYWLIPFSNGTCSFGVVGEPEFFEQYPEDKLAALQQLANEEPGLASLLRNAKYPNPVGELGGYSANVKRLATEHYALLGNAGEFLDPVFSSGVTIAMKSAQFAADCVVRQLNGEVVDWQEEYSERLMVGVNTFRTYVEGWYNGTLQDVIFYQAPNPRIKQMISAILAGYAWDTENPYVKQSEQRLSTLAELVRGEGFLEHHHHHH | soluble
